Reference: paper PMC9318647, “Human and Bacterial Toll-Interleukin Receptor Domains Exhibit Distinct Dynamic Features and Functions” (Molecules, 2022)

B1: human TLR1 TIR domain (TLR1-TIR), residues 625-786, untagged (domain or fragment, UniProt Q15399 625-786, looked up)
chain: NIPLEELQRNLQFHAFISYSGHDSFWVKNELLPNLEKEGMQICLHERNFVPGKSIVENIITCIEKSYKSIFVLSPNFVQSEWCHYELYFAHHNLFHEGSNSLILILLEPIPQYSIPSSYHKLKSLMARRTYLEWPKEKSKRGLFWANLRAAINIKLTEQAKK
notes: human TLR1, NCBI NP_003254.2, the entire intracellular TIR region of residues 625-786; Elutes as distinct dimer and monomer peaks on Superose-12; also called untagged TLR1-TIR

Experiments:
[1] = target: Acinetobacter junii TIR protein (tirA), full length (Acinetobacter junii); test: SEC; analytical sizing of the full-length bacterial TIR-containing proteins, their CC domains and TIR constructs; sample loads 200 μM, except tirS-TIR E216A 20 μM and tirA-TIR E206A 50 μM
[2] = target: Enterococcus TIR protein (tirE), full length (Enterococcus); test: as above
[3] = target: tirA coil-coil (CC) domain (Acinetobacter junii); test: as above
[4] = target: tirE coil-coil (CC) domain (Enterococcus); test: as above
[5] = target: tirS coil-coil (CC) domain (Staphylococcus aureus); test: as above
[6] = target: the molecule itself; test: SEC; analytical Superose-12; 50 mM Na2HPO4, pH 6.5, 150 mM NaCl, 1 mM DTT; TLR1-TIR and TLR2-TIR also after 30 min in 50 mM DTT (homodimers minimized)
[7] = target: B1; test: NMR titration; 15N-TLR2-TIR at 308 μM, unlabeled partner added (TLR1-TIR 308, 616, 924 μM; full-length tirA 308 μM); 15N-HSQC; global fit of several resonances; settings: both partners purified
[8] = target: human TLR2 TIR domain (TLR2-TIR), residues 633-784, untagged (human) (UniProt O60603); test: SEC; analytical Superose-12; 50 mM Na2HPO4, pH 6.5, 150 mM NaCl, 1 mM DTT; TLR1-TIR and TLR2-TIR also after 30 min in 50 mM DTT (homodimers minimized)
[9] = target: the molecule itself; test: SEC; analytical sizing of the full-length bacterial TIR-containing proteins, their CC domains and TIR constructs; sample loads 200 μM, except tirS-TIR E216A 20 μM and tirA-TIR E206A 50 μM

Acinetobacter junii TIR protein (tirA), full length (natural protein)
stoichiometry N [1]: 2

Enterococcus TIR protein (tirE), full length (natural protein)
stoichiometry N [2]: 2

tirA coil-coil (CC) domain (domain or fragment)
stoichiometry N [3]: 2

tirE coil-coil (CC) domain (domain or fragment)
stoichiometry N [4]: 2

tirS coil-coil (CC) domain (domain or fragment)
stoichiometry N [5]: 2

B1
stoichiometry N [6]: 2

B2: human TLR2 TIR domain (TLR2-TIR), residues 633-784, untagged (domain or fragment, UniProt O60603 633-784, looked up)
chain: KAPSRNICYDAFVSYSERDAYWVENLMVQELENFNPPFKLCLHKRDFIPGKWIIDNIIDSIEKSHKTVFVLSENFVKSEWCKYELDFSHFRLFDENNDAAILILLEPIEKKAIPQRFCKLRKIMNTKTYLEWPMDEAQREGFWVNLRAAIKS
notes: human TLR2, NCBI NP_001305716.1, the entire intracellular TIR region of residues 633-784; 15N-labelled in the NMR experiments; Elutes as distinct dimer and monomer peaks on Superose-12; also called 15N-TLR2-TIR
Kd [7]: 760 ± 230 µM
stoichiometry N [8]: 2

B3: Staphylococcus aureus TIR protein (tirS), full length (natural protein)
chain: MSVLETKLKSQMSKSAKIARNMNKLPDEIDRLRKRIERINKKRKPTSSNIRDLEKSNKQLVTKQQKLADLQVEYTKIEKKINETKINLQKEQSRNQKKLSSMLDKNTKGNEEIMEKLLTNSDQINEISNQIKKAVNQKEIIEYDVFLSHSSLDKEDYVSKISEKLIEKGLKVFEDVKVFEIGKSQTETMNMGILNSRFVVVFLSPNFIESGWSRYEFLSFLNREINEEHVIILPIWHKVSVEDVRAYNPYLVDKYALNTSDFSIEEIVEKIYQVIVNSKN
notes: Staphylococcus aureus TIR protein (tirS), NCBI WP_000114516.1, full length (CC domain and TIR domain); also called full-length tirS
stoichiometry N [9]: 2
